Results taken from article PMC4551919 (Nucleic Acids Research, 2015).

How the values were obtained:
Assay in all cases: MST
[1] = target: SMG-1, full length, SBP-tagged (human, UniProt Q96Q15 1-3661)
[2] = target: SMG-1–9 complex (human | , UniProt Q96Q15;Q9H0W8)
[3] = target: SMG-1–8–9 complex (human | , UniProt Q96Q15;Q8ND04;Q9H0W8)
[4] = target: SMG-1ΔC-8–9 complex (human | , UniProt Q96Q15;Q8ND04;Q9H0W8, deleted from the residues 2442 to 3591)

Kd [1]: 75 nM | Kd [2]: 56 nM | Kd [3]: 38 nM | Kd [4]: 221 nM
B1: UPF1, full length, fluorescently labeled with NT-547 (natural protein)
chain: MSVEAYGPSSQTLTFLDTEEAELLGADTQGSEFEFTDFTLPSQTQTPPGGPGGPGGGGAGGPGGAGAGAAAGQLDAQVGPEGILQNGAVDDSVAKTSQLLAELNFEEDEEDTYYTKDLPIHACSYCGIHDPACVVYCNTSKKWFCNGRGNTSGSHIVNHLVRAKCKEVTLHKDGPLGETVLECYNCGCRNVFLLGFIPAKADSVVVLLCRQPCASQSSLKDINWDSSQWQPLIQDRCFLSWLVKIPSEQEQLRARQITAQQINKLEELWKENPSATLEDLEKPGVDEEPQHVLLRYEDAYQYQNIFGPLVKLEADYDKKLKESQTQDNITVRWDLGLNKKRIAYFTLPKTDSGNEDLVIIWLRDMRLMQGDEICLRYKGDLAPLWKGIGHVIKVPDNYGDEIAIELRSSVGAPVEVTHNFQVDFVWKSTSFDRMQSALKTFAVDETSVSGYIYHKLLGHEVEDVIIKCQLPKRFTAQGLPDLNHSQVYAVKTVLQRPLSLIQGPPGTGKTVTSATIVYHLARQGNGPVLVCAPSNIAVDQLTEKIHQTGLKVVRLCAKSREAIDSPVSFLALHNQIRNMDSMPELQKLQQLKDETGELSSADEKRYRALKRTAERELLMNADVICCTCVGAGDPRLAKMQFRSILIDESTQATEPECMVPVVLGAKQLILVGDHCQLGPVVMCKKAAKAGLSQSLFERLVVLGIRPIRLQVQYRMHPALSAFPSNIFYEGSLQNGVTAADRVKKGFDFQWPQPDKPMFFYVTQGQEEIASSGTSYLNRTEAANVEKITTKLLKAGAKPDQIGIITPYEGQRSYLVQYMQFSGSLHTKLYQEVEIASVDAFQGREKDFIILSCVRANEHQGIGFLNDPRRLNVALTRARYGVIIVGNPKALSKQPLWNHLLNYYKEQKVLVEGPLNNLRESLMQFSKPRKLVNTINPGARFMTTAMYDAREAIIPGSVYDRSSQGRPSSMYFQTHDQIGMISAGPSHVAAMNIPIPFNLVMPPMPPPGYFGQANGPAAGRGTPKGKTGRGGRQKNRFGLPGPSQTNLPNSQASQDVASQPFSQGALTQGYISMSQPSQMSQPGLSQPELSQDSYLGDEFKSQIDVALSQDSTYQGERAYQHGGVTGLSQY
modifications: NT-547 dye on amines, on average one fluorescent moiety per UPF1 molecule
